According to FireProtDB (doi:10.1021/bi992257j):

B1: Rubredoxin, P24297 (parent)
chain: MAKWVCKICGYIYDEDAGDPDNGISPGTKFEELPDDWVCPICGAPKSEFEKLED

Variants of: B1
Settings: Pyrococcus furiosus (strain ATCC 43587 / DSM 3638 / JCM 8422 / Vc1), pH 6.3, CD, Sodium phosphate 50 mM, reversible: yes, structure 1BRF, whole UniProt chain shown; for denaturant m value / denaturant midpoint (higher = more stable) / unfolding free energy: 1 °C; for Tm: Thermal

## MAKWVLAITGYIYDEDAGDPDNGISPGTKFEELPDDWVAPITGAPKSEFEKLED [C6L C9T C39A C42T K7A]
GdnHCl
  denaturant m value: 2 kcal/mol/M
  denaturant midpoint (higher = more stable): 1.6 M
  unfolding free energy: 3.2 kcal/mol
Urea
  denaturant m value: 0.81 kcal/mol/M
  denaturant midpoint (higher = more stable): 4.9 M
  unfolding free energy: 4 kcal/mol
  Tm: 74 °C

## MQKWVLKITGYIYDEDAGDPDNGISPGTKFEELPDDWVAPITGAPKSEFEKLED [C6L C9T C39A C42T A2Q]
Urea
  denaturant m value: 0.93 kcal/mol/M
  denaturant midpoint (higher = more stable): 3.8 M
  unfolding free energy: 3.5 kcal/mol
  Tm: 63 °C

## MAKWVLAITGYIYDEDAGDPDNGISPGTKFEELPDDWVAPITGAPKSEFAKLED [C6L C9T C39A C42T K7A E50A]
GdnHCl
  denaturant m value: 2.2 kcal/mol/M
  denaturant midpoint (higher = more stable): 1.27 M
  unfolding free energy: 2.8 kcal/mol
Urea
  denaturant m value: 0.84 kcal/mol/M
  denaturant midpoint (higher = more stable): 4.5 M
  unfolding free energy: 3.8 kcal/mol
  Tm: 74 °C

## MQKWVLKITGYIYDTDAGDPDNGISPGTKFEELPDDWVAPITGAPKSEFEKLED [C6L C9T C39A C42T A2Q E15T]
Urea
  denaturant m value: 1.03 kcal/mol/M
  denaturant midpoint (higher = more stable): 1.6 M
  unfolding free energy: 1.7 kcal/mol
  Tm: 41 °C

## MQKWVLKITGYIYDQDAGDPDNGISPGTKFEELPDDWVAPITGAPKSEFEKLED [C6L C9T C39A C42T A2Q E15Q]
GdnHCl
  denaturant m value: 3 kcal/mol/M
  denaturant midpoint (higher = more stable): 0.5 M
  unfolding free energy: 1.5 kcal/mol
Urea
  denaturant m value: 1.03 kcal/mol/M
  denaturant midpoint (higher = more stable): 2 M
  unfolding free energy: 2.1 kcal/mol
  Tm: 39 °C

## MAKWVLKITGYIYDEDAGDPDNGISPGTKFEELPDDWVAPITGAPKSEFEKLED [C6L C9T C39A C42T]
GdnHCl
  denaturant m value: 1.9 kcal/mol/M
  denaturant midpoint (higher = more stable): 1.68 M
  unfolding free energy: 3.2 kcal/mol
  Tm: 82 °C

## MAKWVLKITGYIYDEDAGDPDNGISPGTKFEELPDDWVAPITGAPKSEFAKLED [C6L C9T C39A C42T E50A]
GdnHCl
  denaturant m value: 2.3 kcal/mol/M
  denaturant midpoint (higher = more stable): 1.35 M
  unfolding free energy: 3.1 kcal/mol
Urea
  denaturant m value: 0.86 kcal/mol/M
  denaturant midpoint (higher = more stable): 4.8 M
  unfolding free energy: 4.1 kcal/mol
  Tm: 77 °C

## MAKWVLKITGYIYDTDAGDPDNGISPGTKFEELPDDWVAPITGAPKSEFEKLED [C6L C9T C39A C42T E15T]
Urea
  denaturant m value: 0.98 kcal/mol/M
  denaturant midpoint (higher = more stable): 1.3 M
  unfolding free energy: 1.3 kcal/mol
  Tm: 38 °C

## MAKWVLKITGYIYDQDAGDPDNGISPGTKFEELPDDWVAPITGAPKSEFEKLED [C6L C9T C39A C42T E15Q]
GdnHCl
  denaturant m value: 2.5 kcal/mol/M
  denaturant midpoint (higher = more stable): 0.63 M
  unfolding free energy: 1.7 kcal/mol
Urea
  denaturant m value: 0.91 kcal/mol/M
  denaturant midpoint (higher = more stable): 3 M
  unfolding free energy: 2.7 kcal/mol
  Tm: 57 °C
